Assay results from publication PMC6989803, “Synechocystis KaiC3 Displays Temperature- and KaiB-Dependent ATPase Activity and Is Important for Growth in Darkness” (Journal of Bacteriology, 2019).

B1: KaiB1, recombinant, GST tag cleaved off (natural protein, Synechocystis sp. strain PCC 6803, UniProt P74645 1-105, looked up)
chain: MSPFKKTYVLKLYVAGNTPNSVRALKMLKNILEQEFQGVYALKVIDVLKNPQLAEEDKILATPTLAKILPPPVRKIIGDLSDREKVLIGLDLLYDEIREREAEDQ
notes: Eluted only as a tetramer from size exclusion chromatography; also called KaiB1 tetramer
B2: KaiB3, recombinant, GST tag cleaved off (natural protein, Synechocystis sp. strain PCC 6803, UniProt Q55819 1-102, looked up)
chain: MDMNRIVLRLYITGNSVRSQQAIANIYRICQEDLGDQYNVEIIDVLEQPQRAEEEKIMVTPTLIKQLPPPLQRIIGDMSNTEKVLLGLDIVPEGLQVRLPED
notes: Eluted as a monomer and as a tetramer; the two fractions were tested separately in the ATPase assay; also called KaiB3 monomer; KaiB3 tetramer

Assays:
[1] = target: KaiC3 wild-type protein fused to an N-terminal Strep-tag (Synechocystis sp. strain PCC 6803); experiment: SEC; Strep-KaiC3 on Sephacryl S300 HR HiPrep 16/60; 20 or 50 mM Tris-HCl (pH 8.0), 150 mM NaCl, 2 mM DTT, 1 mM ATP, 5 mM MgCl2
[2] = target: the molecule itself; experiment: SEC; KaiB1 and KaiB3 on Sephacryl S200 HR HiPrep 16/60 or Superdex 200 Increase 10/30 GL; 20 or 50 mM Tris-HCl (pH 8.0), 150 mM NaCl, 2 mM DTT

Row | Molecule | stoichiometry N [1] | stoichiometry N [2]
1 | KaiC3 wild-type protein fused to an N-terminal Strep-tag (enzyme) | 6 | –
2 | B1 | – | 4
3 | B2 | – | 4
